{
  "source": "patent US20240239878A1",
  "about": "(SHANGHAI QILU PHARMACEUTICAL RESEARCH AND DEVELOPMENT CENTRE, published 2024)",
  "binders": {"B1": {"name": "H2-39E2D11-AS humanized antibody variant (antibody, V domains shown)", "VH": "QVQLVQSGAEVKKPGASVKVSCKASGYTFISYWITWVRQAPGQGLEWMGDIYPGSGSTTNYNEKFKSRVTMTRDTSTSTVYMELSSLRSEDTAVYYCARETTVGGAYAMDYWGQGTLVTVSS", "VL": "EIVLTQSPATLSLSPGERATLSCRASQSINNNLHWYQQKPGQAPRLLIKYVSQSISGIPARFSGSGSGTDFTLTISSLEPEDFAVYYCQQTASWPLTFGGGTKLEIK", "notes": "Variant of H2-39E2D11; Its constant regions are not restated"}, "B2": {"name": "H2-39E2D11-NA humanized antibody variant (antibody, V domains shown)", "VH": "B1 VH", "VL": "B1 VL with A92N, S93A", "notes": "as for B1"}, "B3": {"name": "H2-39E2D11-QS humanized antibody variant (antibody, V domains shown)", "VH": "B1 VH", "VL": "B1 VL with A92Q", "notes": "as for B1"}, "B4": {"name": "DLL3-26 VHH (IPTG-induced supernatant, with his and c-Myc labels) (VHH)", "VHH": "QVQLVESGGGSVQAGGSLRLSCAASGDIYSSSYVGWFRQAPGKEREGVAIIYTSGDSTYYANSVKGRFTISQDKAKKTLYLQMNSLKPEDTAMYYCAARFAIDNSNYWGQGTQVTVSS", "notes": "not shown: his and c-Myc labels"}, "B5": {"name": "DLL3-122 VHH (IPTG-induced supernatant, with his and c-Myc labels) (VHH)", "VHH": "QVQLVESGGGSVQAGGSLRLSCTASGDTYRSYCMGWFRKAPGKEREGVADIVSDGSTSYADSVKGRFTISKDNAKNTLYLQMNSLKPEDTAMYYCAVDRGGSGGYCYTGRYDYWGQGTQVTVSS", "notes": "as for B4"}, "B6": {"name": "DLL3-3 VHH (IPTG-induced supernatant, with his and c-Myc labels) (VHH)", "VHH": "DVQLVESGGGSVQAGGSLKLSCKSPTYTISSGYMGWFRQAPGKEREGVAAIYIGGSTTLYADSVKGRFTISADNAEKTVYLQMNTLKPEDSAMYYCAAQLRPNSAYHPLDGRKYNYWGQGTQVTVSS", "notes": "as for B4"}, "B7": {"name": "DLL3-12 VHH (IPTG-induced supernatant, with his and c-Myc labels) (VHH)", "VHH": "QVQLVESGGGLVQPGESLRLSCAGSGFAFSSYDMHWVRQAPGKDFEWVSSISRDGRGPRYADFVKGRFTISKDNGRNMLYLQLNSLEIEDTAMYYCSKGYPIMGGTTQGTQVTVSS", "notes": "as for B4"}, "B8": {"name": "DLL3-276 VHH (IPTG-induced supernatant, with his and c-Myc labels) (VHH)", "VHH": "QVQLVESGGGSVQAGGSLNLSCATSGSTASTTYMGWFRQAPGKGREGVAIIYTARDNPWYANSVKGRFIISQDNAKKTLYLQMNTLKPEDTATYYCAATLANPTRTAWGQGTLVTVSS", "notes": "as for B4"}},
  "note": "Residue numbers refer to the chain shown, from its start.",
  "data": [
    {"target": "T1, Cynomolgus monkey DLL3 antigen protein (Kactus Biosystems, Cat. No. CM103) (Cynomolgus monkey, UniProt Q9NYJ7 27-490 (human entry))", "T1 construct": "also called cyno DLL3", "T1 chain": "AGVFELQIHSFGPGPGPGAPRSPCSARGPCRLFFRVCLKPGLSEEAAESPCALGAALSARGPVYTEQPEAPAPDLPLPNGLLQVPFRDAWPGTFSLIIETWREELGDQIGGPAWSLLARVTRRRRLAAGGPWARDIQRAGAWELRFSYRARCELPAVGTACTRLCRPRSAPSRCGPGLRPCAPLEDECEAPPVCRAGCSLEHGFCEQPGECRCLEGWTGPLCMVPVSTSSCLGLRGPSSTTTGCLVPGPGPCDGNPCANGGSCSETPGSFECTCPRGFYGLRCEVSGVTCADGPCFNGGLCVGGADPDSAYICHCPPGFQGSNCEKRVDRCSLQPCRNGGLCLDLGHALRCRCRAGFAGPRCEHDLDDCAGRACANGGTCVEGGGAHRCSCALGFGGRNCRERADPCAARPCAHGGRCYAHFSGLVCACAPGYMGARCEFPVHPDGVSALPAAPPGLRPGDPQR", "assay": "affinity assay with Cynomolgus monkey DLL3 antigen protein (kinetics; method not restated, Biacore as in Example 18 implied)", "units": {"Kd": "nM", "koff": "s⁻¹", "kon": "M⁻¹ s⁻¹"}, "values": [
      {"binder": "B1", "Kd": 1.63, "koff": 0.000427, "kon": 262000},
      {"binder": "B2", "Kd": 0.346, "koff": "8.09e-05", "kon": 233000},
      {"binder": "B3", "Kd": 0.434, "koff": "8.59e-05", "kon": 198000}
    ]},
    {"target": "T2, human DLL3 antigen protein (Kactus Biosystems, Cat. No. DLL-HM103) (human, UniProt Q9NYJ7 27-492)", "T2 sequence": "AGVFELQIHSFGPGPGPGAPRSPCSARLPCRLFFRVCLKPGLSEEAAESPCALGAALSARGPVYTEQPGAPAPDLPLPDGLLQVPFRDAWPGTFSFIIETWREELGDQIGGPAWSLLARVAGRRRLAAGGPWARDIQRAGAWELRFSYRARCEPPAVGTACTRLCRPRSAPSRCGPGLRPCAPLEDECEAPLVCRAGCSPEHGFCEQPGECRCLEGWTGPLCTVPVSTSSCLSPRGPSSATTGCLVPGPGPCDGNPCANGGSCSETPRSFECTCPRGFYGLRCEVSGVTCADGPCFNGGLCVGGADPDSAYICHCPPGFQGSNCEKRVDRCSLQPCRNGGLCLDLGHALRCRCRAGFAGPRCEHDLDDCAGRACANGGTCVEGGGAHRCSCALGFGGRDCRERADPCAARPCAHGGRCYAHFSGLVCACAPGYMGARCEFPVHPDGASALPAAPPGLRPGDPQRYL", "assay": "affinity assay with human DLL3 antigen protein (kinetics; method not restated, Biacore as in Example 18 implied)", "units": {"Kd": "nM", "koff": "s⁻¹", "kon": "M⁻¹ s⁻¹"}, "values": [
      {"binder": "B1", "Kd": 1.76, "koff": 0.000362, "kon": 206000},
      {"binder": "B2", "Kd": 0.484, "koff": 0.00012, "kon": 247000},
      {"binder": "B3", "Kd": 0.229, "koff": "3.91e-05", "kon": 171000}
    ]},
    {"target": "T1, Cynomolgus monkey DLL3 antigen protein …", "assay": "ELISA, antigen coated at 2 ug/ml, induced supernatant, anti-Myc HRP", "description": "(§1) In order to obtain a positive antibody that can cross-bind to human DLL3 and Cynomolgus monkey DLL3, the above library was amplified and added to the M13K07 helper phage to assemble phage. 1×10¹² pfu camel immune library phage was added and incubated with biotinylated human DLL3 proteins (8 μg/mL) bound to magnetic beads for 1 h at room temperature. After washing with 0.05% PBST to remove unbound phage, the phage specifically bound to DLL3 was eluted with 100 mM triethylamine. After gradient dilution, log-phase growth of E. coli SS320 was infected and spread on an ampicillin plate overnight at 37° C. A single clone was picked for IPTG-induced expression and the supernatant was used for ELISA detection. The ELISA plate was coated with 2 μg/ml human DLL3 or Cynomolgus monkey DLL3 antigen respectively overnight at 4° C. The plate was washed with 0.05% PBST 3 times, then blocked with 5% skimmed milk for 1 h at room temperature, and washed with 0.05% PBST 3 times. Then 30 μL of induced supernatant was added to each well, and a culture medium was added to a negative control well. The plate was incubated for 1 h at room temperature. Finally, anti-Myc HRP detection was performed (VHH expressed by IPTG induction has his and c-Myc labels). The amino acid sequences of the five heavy chain antibody variable regions of the present disclosure were obtained by sequencing clones from the ELISA assay that bound human and Cynomolgus monkey DLL3 with OD450 values greater than 1.0 and ELISA OD450 ratios greater than 3 to the medium as negative control, with the results shown in Table 1: […]", "units": {"ELISA OD450 ratio to the medium negative control": "fold", "OD450": "OD450"}, "values": [
      {"binder": "B4", "ELISA OD450 ratio to the medium negative control": "> 3", "OD450": "> 1"},
      {"binder": "B5", "ELISA OD450 ratio to the medium negative control": "> 3", "OD450": "> 1"},
      {"binder": "B6", "ELISA OD450 ratio to the medium negative control": "> 3", "OD450": "> 1"},
      {"binder": "B7", "ELISA OD450 ratio to the medium negative control": "> 3", "OD450": "> 1"},
      {"binder": "B8", "ELISA OD450 ratio to the medium negative control": "> 3", "OD450": "> 1"}
    ]},
    {"target": "T2, human DLL3 antigen protein (Kactus …)", "assay": "ELISA, antigen coated at 2 ug/ml, induced supernatant, anti-Myc HRP", "description": "as §1", "units": {"ELISA OD450 ratio to the medium negative control": "fold", "OD450": "OD450"}, "values": [
      {"binder": "B4", "ELISA OD450 ratio to the medium negative control": "> 3", "OD450": "> 1"},
      {"binder": "B5", "ELISA OD450 ratio to the medium negative control": "> 3", "OD450": "> 1"},
      {"binder": "B6", "ELISA OD450 ratio to the medium negative control": "> 3", "OD450": "> 1"},
      {"binder": "B7", "ELISA OD450 ratio to the medium negative control": "> 3", "OD450": "> 1"},
      {"binder": "B8", "ELISA OD450 ratio to the medium negative control": "> 3", "OD450": "> 1"}
    ]}
  ]
}
